Results taken from the DeepSol protein solubility set.

Experiment: soluble on expression in E. coli; label from the status in PepcDB or PDB records

Sequence	soluble on expression in E. coli
MAHHHHHHMCLSNLSYFFGAFEAVEPARSENDGGYASDWLSTLYSSLGLVLAHYLFEDNVEATVEATRILGNISYTNAGRDWMEANHCDEVTVLFLGHEDLRVVYNCCGVLLNLTAASPCRVVQDPELLQTMLSYTSRYTDQDRVEAVTALEEARLRQEQQELQQQRRGGDMKELVSEASSHVAQISDIVEKLLLNVHGVLHASAI	not soluble
MAHHHHHHMDDERTTAAGRITSTNVREEEPSITVPCELDTHIEQHERRKRGRVWTAEEQAAYWREKKEKQRQRKKAAAAERREMQQKEWEALSQSERERRRAEAIAVHEKRRGAEMRLQQLCQEHLADAKLPVLVFDLSFAWCMNASDCRSTVSQVKLSYSALRRHAFPLRPVITSIGGSADGEMACAHSDVLQSLCTFNGFSRYPLPVHENHWSSLYDLQRVVFLTADAEVVLERIEQGTVYIVGAFVDHNARKFLTRDAAIRYGVRMARLPIDESIKVGNICKVLTVNHVVDVLCRYTECGDWSTAFDVLPTRRTVSRRERRTNAHISMSSNTVFGECDSVDTDETGGTTRVASGQAD	not soluble
MAHHHHHHMDEIKWPLRLLQILRNHLEQVDHPHEPRTLPIAAKCGQGGVLAFLTDVDDDVRRRTGASECITACCRGLVLDMIEQCCTLLFLSSKERRVINMAAVQREKRVVARGVGKRRRGDQGETTEETAIGETDNSQRKCAAVLPLEYLLRLFVALPSLLAHYDKLGGSTMPAAFKQPLWNYVNAVLDIMKDMTFLDPSEYIPLR	not soluble
MAHHHHHHMDGAYGMRTVLNSSRLEEEPKYTLNPADLPHSSMNANNMMNGAVLTNGYHTSDYVINRESYPPDMMPQFKIDQGGSAYNNTMPMNSIIHTDPNESINMQGMKTCLETTTGFDSYRNLMNYNNTQNTIQASQVPFHLDDYNSGADLMYMSHPHTGDNFSPDYLNNLRSTETDPMTYGNNFNIPNGQFNSMLGENNNYNSLPYSMPIFENMNNPQMYMQQMNSKQALSGPTQKMDHTCSIRKMPAVSKRKIKPKKFFPCC	soluble
MAHHHHHHMDSDLSAEIARIEAELAQDAELRQQQQQLAPQQPPASLFGFGQTAPVQPQQQQQQQLFQTQPPQPQQQPSNPFNVNASPFMPTPQQPDYSQQQQQQQQPIGSAGQAAAQASAPTPIIHSFSKDTDSRSIFIGNLPRGTDGTPTTTPEELVQFFADCGNILNCTVLKDRATGEPKGTAYIEFADYTAMGKAIDTKNNANFKGSTIIVCVSTSPLFSLAGFFG	soluble
MAHHHHHHMEAKLSSALRTCDKCRTYADLCRTFEAKVSPIVEQALQSPLVKAPRDHTTPDECSPRVAELREALCTRLGADKATPAEDDVWFLIYRTVSNFVERQQRKRSRDQDGTSLSTLVTNCFVLLCTRTLPQLDHMKLRWGFLKKERAALESSDAYVHSNASERRKLQLNATSVLSVFSERAHKHSFTFVWMLCVEKAGEAALHVHLLHRVGSVVLPYLTNPLVLADYLTGCFSSGGIISILSLQGLFLLMLDHGLEYPNYYEQLYSLLTPDVFASRYRYELFRLLDLSMTSLRVPSYIAASVIKRVAQVSLMAPAPTLYFSLPFLRKVLQSHPNCLALIHRSSREAVIPDDMADQDTDTVTAQSAKAQAMRDTAALFDGRDPFDDRAKLLETHALSSTLWELTALERHFMPVVPLMVSAFSSTAEDKTPLRYEKSYGRLFTAEVTRAIDCHNLPTIAYEAPSEADPTDLLSL	soluble
MAHHHHHHMEAPTDNDSMQAGPVVVGHADGVLTMPSEDFASLHLQPIQDDTWIRNAEIVHMENFVETEDGKRIKREILKEYVEEKERQGTFHPDPILEGMIYQEKFMEAYRTNGRSVDADKAHSYRLKLLETHRRARAIENADT	not soluble
MAHHHHHHMEIKTASKIVRRVSNVEAFDKSGSVFKGYQIWTDISPTIENDPNIMFVKCVVQQGSKKEKLTVVQIDPPGTGTPYDIDPTHAWNCNSQVDPMSFGDIGLLNHTNIPCVLDFLKHRYLKNQIYTTAVPLIVAINPYKDLGNTTNEWIRRYRDTADHTKLPPHVFTCAREALSNLHGVNKSQTIIVSGESGAGKTEATKQIMRYFASSKSGNMDLRIQTAIMAANPVLEAFGNAKTIRNNNSSRFGRFMQLVISHEGGIRYGSVVAFLLEKSRIITQDDNERSYHIFYQFLKGANSTMKSKFGLKGVTEYKLLNPNSTEVSGVDDVKDFEEVIESLKNMELSESDIEVIFSIVAGILTLGNVRLIEKQEAGLSDAAAIMDEDMGVFNKACELMYLDPELIKREILIKVTVAGGTKIEGRWNKNDAEVLKSSLCKAMYEKLFLWIIRHLNSRIEPEGGFKTFMGMLDIFGFEVFKNNSLEQLFINITNEMLQKNFVDIVFERESKLYKDEGISTAELKYTSNKEVINVLCEKGKSVLSYLEDQCLAPGGTDEKFVSSCATNLKENNKFTPAKVASNKNFIIQHTIGPIQYCAESFLLKNKDVLRGDLVEVIKDSPNPIVQQLFEGQVIEKGKIAKGSLIGSQFLNQLTSLMNLINSTEPHFIRCIKPNENKKPLEWCEPKILIQLHALSILEALVLRQLGYSYRRTFEEFLYQYKFVDIAAAEDSSVENQNKCVNILKLSGLSESMYKIGKSMVFLKQEGAKILTKIQREKLVEWENCVSVIEAAILKHKYKQKVNKNIPSLLRVQAHIRKKMVA	not soluble
MAHHHHHHMEKNQNDKSNKNDIIHMNDKSGNYDKNNINNFIDKNDEHDMSDILHKINNEEKKYEEIKSYSECLELLYKTHALKLGLDNPKKLNESFGHPCDKYKTIHIAGTNGKGSVCYKIYTCLKIKKFKVGLFSSPHIFSLRERIIVNDEPISEKELIHLVNEVLNKAKKLYINPSFFEIITLVAFLHFLNKKVDYAIIETGIGGRLDATNILTKPEVIVITSIGYDHLNILGDNLPIICNEKIGIFKKDANVVIGPSVAIYKNVFDKAKELNCTIHTVVPEPRGERYNEENSRIALRTLEILNISIDYFLKSIIPIKPPLRIQYLATEQIQHIKKKFSPDNLEHNVQYPLAVILDVGHNETAIDRLCTDINYFHKGQNIRICISITKPRNLSVFHPFIAQFGDTLKDIFYLPSLNERTYDFEEIVEMLNNEEEIKNEIKELILSSSKKVGKWLAHEKQGNINEEDALKLYKRGCIPLIIKNAFLECCKDNSILLVCGTFFVFDEVLNVFDIHSDMQDTIFMNEPSLV	soluble
MAHHHHHHMFSFYIYRKKTISWDEVTINEQDKERGSRMKILEPNTPFNFILMDSASEDEASKYGDVKGSDEGQNNIADDLINKLNQLVEKQENKGVSNIDFKEKRKKHYNEYKMLQKLRKSGTLDDIDEEYKPDNKDSNCDNSVSQEFPCYIARNFVVISL	not soluble
MAHHHHHHMFSRTGFRCAPVVEDVVAAFKVLGLAYNPRAPASSRPGVDDVRRQYLEMARLHHPDLSSGDDNRMKVINTAYELIQSSGILHGAYDAPAGAREGVAGQQGGEAGTATRFARKAGARRRRMPDDFASGDDSSWSMKTSLDWQAIMNSTETLSDEEMKNPANHPFSHSKFFTFEDDLTIYRMICGGATVRQVARSLGKPATFIERRLQNAQFKLRVQYVLRQDKRKSTAASSNGAASSGSMQQTTSTTITEPATRRALRRSPYEDAHVSSTVRKREWEPSYPEWRAPRYRDQMTLEEQGRLDGLLRETPRAAHAAGKSVSSLHSARRSAASKMGRSYENYKRLRPSF	not soluble
MAHHHHHHMGFFKKNKRQSFNRNYEGEVQCNNIILGGTFYKHCENDLLLKNELENLVPYFNGRIFLENKEEIGKVDEILGPINEFYFSVKLKEGIRAKSFSSDTHFFIDKSQTLPLSRFLPQEKNSQSLVKKKKKKSNRDKKKNSFNQNNKKPNNYNFKGNNNRNDHNNRNDHNNRNDHNNRNDHNNRNDRNNRNNKNSFRNRSNSSRKFNNQRGRF	not soluble
MAHHHHHHMGGDVTFSLTKTRDTFADWFDAIMDAAELVDRRYPVKGCVVFRPYGFFMENAIMRLCEEEYAKVGISQILFPTVIPESFLKKESDHIKGFEAECFWVEKGGLQPLEERLALRPTSETAIYSMFSKWVRSYKDLPLKIHQTCTIFRHETKNTKPLIRVREIHWNEAHCCHATAEDAVSQLSDYWKVIDTIFSDELCFKGQKLRRVCWDRFPGADYSEVSDVVMPCGRVLQTAGIHNLGQRFSSTFDILYANKANESVHPYLTCAGISTRVLACALSIHGDSGGLVLPPLIAPIHVVIIPIGCGKKNNQESDQQVLGKVNEIADTLKSKLGLRVSIDDDFSKSMGDKLYYYELKGVPLRIEVGQRDLANGQCIVVPRDVGKDQKRVIPITEVMKVSSHTTENHELVVKNVIKDELDAYKARLKEKAFAFHNSMVTNCKSFDEIVACIENKGGLARFPFYTTEADGEVWDKKLKDACSAEIRGHNPDENVLPGEVCALSGKPAVCYMYCAKSY	soluble
MAHHHHHHMGKHMNNQDFAETEQAARAIRKLLNGEIDTIKLENGNKLKIRSSDEKDDAHKRHNDKTNYSFIDNSEEENVQTNLLRKNETVDAGSKIVEDQEDFYILDNESIEAIANKISMENKFHEFEAEAFAQSLKDIIRSLNN	soluble
MAHHHHHHMGKKAEFARSRFKEVRQKREERMQRSRTERDRRHGIDKLERKIGKVVVQRPLPNEAQQALLLAQFAQACRLVAPSTDMCILMRHYAKVAEAAEQKSKSTTMVTTSAPSAKSTTRKRKRDEAEEEEEEAPAAGATFLDTVADALLQTQNAPAVIEEAAASAKDGENALDDDDDDDDTVTVLQDILQDDNGRRVVATLLASLNAVHSSKCEAVAKAVLEQFEENEHLPQHHVACRVMSALAQFGSDPTRQGVLNLLRQRSTTIEGVERLLSDRHTAGTIEQLLKSYSRETAAWLCEALSLSTPVTSPSAAEAGGKKKKAAKQRDAAAEETASGERITTEKLMELVNGPVSGQVLLQLLHTDARRELLKRLPIVELLRSKRGTTFLTQLLMSTASVASSKGDEGREAEAVALFSDVLERLGNDLGEMAIDKRANFVVQALIQLLPAMGPQSAKQLERLERGLGGAAGISALVAHGNGVHVVLSLIDAALTLSSESAVEGLAEQLVTRQNVTDLLYHKHGSLVVRRLMPLISRKASKVGRLLQGMVEQDFSNLVYTEAGNLVVTAYLTALGKSGASLLAQKLAGGEELLSMCRSPYASHVVFTLFELVDPITHTLLCNALKAHVLPLSIHVNGRFIVEKMIAASRDVRESVSRQFLSLAQERGTQHVLCALLARMDARGKQACVEKTIMPNLTALATHQCGSIVLQKLMQAEPTVLSAVRQRLSANSLVRSDLAQNFFGKFVVQIAQQPEQEQPQ	soluble
MAHHHHHHMGLVDAYDRAATTEIANESLKDVRPDIVHQCLLALFDSDLAYQHRLRVYMSLFVRQGKVIEVSPALRPPRTYARFRGLMSALLRDGRICSTDGQVLMRLMPGSVAPIIPHGAEVVGLTNSLSSPVVTATQLAQQAVAAPVDDSLQGGIKHVTAFYCISCTDDCNLDGIDYITKSVCLSAYPMTAHVQCARVCEGHTRVEPASSVSGSAAGMGVGGGQAKTDRCSAPEPPKRRGEVFPANQAEDNKL	not soluble
MAHHHHHHMGRKKRKLNIDLKPFCYYCDREFDDEKILIQHQKAKHFKCLHCNRKLDMANGLVVHMMQVHKTNLKSVPNALPKRNDPELVIRGMNGVPTDIIEENLIKLKQKLGDKNIKRQQRVNWAQVTMAPTMEQFLKQAQMGNFSFPGFNSPVLPTNNNILTNTLDINNKSTLPNIPLYIPNTTSNINNINNINNLLQQPIGNNIIYPPKNSTLLNMPIPPINKNNINNHVVTNPNTFTPSNIPPNIAHKYSANINLLPTNINQHNPMYMPPGLYPPPIPPLNHPSIPPTHIPSSTYPTKMTPIQQKRPSTKWDVPEPSEGDPSILKHNKEDSTENKNEEPHKVSQDDDLKQNEQKDNQEKNHTQNCE	not soluble
MAHHHHHHMGTLEAQTQGPGSMIFNVLTIFPQMFPGPLGVSNLGSALKKGLWTLNVFDIRAFANNKHNTVDDTPYGGGPGMLLRADVLGRCIDEVLSLHPNTKLMFTSPRGVSFTQDIARQTMNFDNITLLCGRFEGIDERVVDFYKLQEVSIGDYVLSGGELAAMVIIDTCVRMVPGVIGNAESLKQESMEGSLEYPQYTRPASWKGMEVPEVLLTGNHGEIEKWRRNASLSITAARRPDLLKDRYGENDVE	soluble
